# Key:
# recalcified plasma = test: one stage clotting (coagulation) assay of full-length TF mutants in CHO cell lysates; assay type: biochemical; details: coagulant activity normalized to antigen concentration; full-length mutants expressed in CHO cells
# Description: The full-length TF mutants prepared above were analyzed for function by coagulation assay. […] Coagulation factor deficient plasmas were purchased from George King Bio-medical. The chromogenic substrate, Spectrozyme FXa, was from American Diagnostica Inc. (Greenwich, Conn.).
# An alternative approach was to use a polyvalent antibody purified by affinity for capturing TF followed by detection with the TF8-5G9 monoclonal antibody described above.
# Initiation of coagulation by wild-type and mutant TF in recalcified plasma was determined after lysis of cell pellets from 2×10^6 cells/ml for each expressed full-length mutant with 15 mM octyl-glucopyranoside in HBS for 15 minutes at 37C. followed by a 3-fold dilution.
# All data represented are based on at least three independent determinations performed in duplicate.
# VIIa = test: linked chromogenic assay with purified VIIa and factor X (apparent dissociation constant of TF-VIIa); assay type: binding; details: 5 mM Ca2+, Factor X 100 nM
# Description: (§1) The lysate was prepared by treating cell pellets with 15 mM octyl-glucopyranoside for 15 minutes at 37C. followed by a 3-fold dilution. […] Formed TF-VIIa complexes were quantified with substrate factor X added at 100 nM for a fixed time. Samples were then removed from the reaction and quenched in 100 mM EDTA in TBS (20 mM Tris-HCl, 140 mM NaCl, pH 7.4). The formation of Xa in the quenched reaction was determined with the chromogenic peptidyl substrate, Spectrozyme FXa (1.2 mM). The rate of Spectrozyme hydrolysis, measured as the increase in absorbance (mOD/min), was determined at ambient temperature in a kinetic plate reader (Molecular Devices, Mountain View, Calif.) followed by quenching and monitoring of product factor Xa formation using the Spectrozyme FXa.
# Enzfitter (Elsevier Biosoft) programs were employed to calculate the KDapp from the experimentally determined bound VIIa, and free VIIa which was obtained by subtracting bound VIIa from the initial VIIa concentration.
# Factor X = test: ability to functionally cleave Factor X (reaction rate Vmax) of D44 mutants; assay type: biochemical; details: D44 substitution study
# Description: as §1
# Additional mhuTF mutants were prepared based on amino acid residue substitutions at amino acid residue position number D44.
Molecule,reduction in specific functional activity (loss of function) relative to wild-type TF (recalcified plasma),increase in KDapp for the TF-VIIa interaction compared to wild-type TF (ratio KD mutant/KD wild-type) (VIIa),other results
"Ile-22 to Ala: human tissue factor mutant with alanine substituted for Ile-22 (protein, UniProt P13726 33-295, looked up, variant I22A) Tissue factor: SGTTNTVAAYNLTWKSTNFKTALEWEPKPVNQVYTVQISTKSGDWKSKCFYTTDTECDLTDEIVKDVKQTYLARVFSYPAGNVESTGSAGEPLYENSPEFTPYLETNLGQPTIQSFEQVGTKVNVTVEDERTLVRRNNTFLSLRDVFGKDLIYTLYYWKSSSSGKKTAKTNTNEFLIDVDKGENYCFSVQAVIPSRTVNRKSTDSPVECMGQEKGEFREIFYIIGAVVFVVIILVIILAISLHKCRKAGVGQSWKENSPLNVS",35%,11 fold,–
"Arg-131: human tissue factor alanine mutant at Arg-131 (protein, UniProt P13726 33-295, looked up, variant R131A) Tissue factor: SGTTNTVAAYNLTWKSTNFKTILEWEPKPVNQVYTVQISTKSGDWKSKCFYTTDTECDLTDEIVKDVKQTYLARVFSYPAGNVESTGSAGEPLYENSPEFTPYLETNLGQPTIQSFEQVGTKVNVTVEDEATLVRRNNTFLSLRDVFGKDLIYTLYYWKSSSSGKKTAKTNTNEFLIDVDKGENYCFSVQAVIPSRTVNRKSTDSPVECMGQEKGEFREIFYIIGAVVFVVIILVIILAISLHKCRKAGVGQSWKENSPLNVS",30-50%,–,–
"Val-64/Tyr-71 to Ala: human tissue factor double mutant with alanines for Val-64 and Tyr-71 (protein, UniProt P13726 33-295, looked up, variant V64A Y71A) Tissue factor: SGTTNTVAAYNLTWKSTNFKTILEWEPKPVNQVYTVQISTKSGDWKSKCFYTTDTECDLTDEIAKDVKQTALARVFSYPAGNVESTGSAGEPLYENSPEFTPYLETNLGQPTIQSFEQVGTKVNVTVEDERTLVRRNNTFLSLRDVFGKDLIYTLYYWKSSSSGKKTAKTNTNEFLIDVDKGENYCFSVQAVIPSRTVNRKSTDSPVECMGQEKGEFREIFYIIGAVVFVVIILVIILAISLHKCRKAGVGQSWKENSPLNVS",–,2.1 fold,–
"Glu-105: human tissue factor mutant with Ala replacement for Glu-105 (protein, UniProt P13726 33-295, looked up, variant E105A) Tissue factor: SGTTNTVAAYNLTWKSTNFKTILEWEPKPVNQVYTVQISTKSGDWKSKCFYTTDTECDLTDEIVKDVKQTYLARVFSYPAGNVESTGSAGEPLYENSPEFTPYLATNLGQPTIQSFEQVGTKVNVTVEDERTLVRRNNTFLSLRDVFGKDLIYTLYYWKSSSSGKKTAKTNTNEFLIDVDKGENYCFSVQAVIPSRTVNRKSTDSPVECMGQEKGEFREIFYIIGAVVFVVIILVIILAISLHKCRKAGVGQSWKENSPLNVS",more than 50%,–,–
"Thr-139/Ser-142: human tissue factor alanine double mutant at Thr-139 and Ser-142 (protein, UniProt P13726 33-295, looked up, variant T139A S142A) Tissue factor: SGTTNTVAAYNLTWKSTNFKTILEWEPKPVNQVYTVQISTKSGDWKSKCFYTTDTECDLTDEIVKDVKQTYLARVFSYPAGNVESTGSAGEPLYENSPEFTPYLETNLGQPTIQSFEQVGTKVNVTVEDERTLVRRNNAFLALRDVFGKDLIYTLYYWKSSSSGKKTAKTNTNEFLIDVDKGENYCFSVQAVIPSRTVNRKSTDSPVECMGQEKGEFREIFYIIGAVVFVVIILVIILAISLHKCRKAGVGQSWKENSPLNVS",30-50%,–,–
"Arg-136: human tissue factor alanine mutant at Arg-136 (protein, UniProt P13726 33-295, looked up, variant R136A) Tissue factor: SGTTNTVAAYNLTWKSTNFKTILEWEPKPVNQVYTVQISTKSGDWKSKCFYTTDTECDLTDEIVKDVKQTYLARVFSYPAGNVESTGSAGEPLYENSPEFTPYLETNLGQPTIQSFEQVGTKVNVTVEDERTLVRANNTFLSLRDVFGKDLIYTLYYWKSSSSGKKTAKTNTNEFLIDVDKGENYCFSVQAVIPSRTVNRKSTDSPVECMGQEKGEFREIFYIIGAVVFVVIILVIILAISLHKCRKAGVGQSWKENSPLNVS",30-50%,–,–
"Asp-58 to Ala: human tissue factor mutant with alanine substituted for Asp-58 (protein, UniProt P13726 33-295, looked up, variant D58A) Tissue factor: SGTTNTVAAYNLTWKSTNFKTILEWEPKPVNQVYTVQISTKSGDWKSKCFYTTDTECALTDEIVKDVKQTYLARVFSYPAGNVESTGSAGEPLYENSPEFTPYLETNLGQPTIQSFEQVGTKVNVTVEDERTLVRRNNTFLSLRDVFGKDLIYTLYYWKSSSSGKKTAKTNTNEFLIDVDKGENYCFSVQAVIPSRTVNRKSTDSPVECMGQEKGEFREIFYIIGAVVFVVIILVIILAISLHKCRKAGVGQSWKENSPLNVS",–,41 fold,–
"Arg-196: human tissue factor alanine mutant at Arg-196 (protein, UniProt P13726 33-295, looked up, variant R196A) Tissue factor: SGTTNTVAAYNLTWKSTNFKTILEWEPKPVNQVYTVQISTKSGDWKSKCFYTTDTECDLTDEIVKDVKQTYLARVFSYPAGNVESTGSAGEPLYENSPEFTPYLETNLGQPTIQSFEQVGTKVNVTVEDERTLVRRNNTFLSLRDVFGKDLIYTLYYWKSSSSGKKTAKTNTNEFLIDVDKGENYCFSVQAVIPSATVNRKSTDSPVECMGQEKGEFREIFYIIGAVVFVVIILVIILAISLHKCRKAGVGQSWKENSPLNVS",–,3.5 fold,–
"Phe-140: human tissue factor alanine mutant at Phe-140 (protein, UniProt P13726 33-295, looked up, variant F140A) Tissue factor: SGTTNTVAAYNLTWKSTNFKTILEWEPKPVNQVYTVQISTKSGDWKSKCFYTTDTECDLTDEIVKDVKQTYLARVFSYPAGNVESTGSAGEPLYENSPEFTPYLETNLGQPTIQSFEQVGTKVNVTVEDERTLVRRNNTALSLRDVFGKDLIYTLYYWKSSSSGKKTAKTNTNEFLIDVDKGENYCFSVQAVIPSRTVNRKSTDSPVECMGQEKGEFREIFYIIGAVVFVVIILVIILAISLHKCRKAGVGQSWKENSPLNVS",30-50%,18 fold,–
"Thr-106: human tissue factor mutant with Ala replacement for Thr-106 (protein, UniProt P13726 33-295, looked up, variant T106A) Tissue factor: SGTTNTVAAYNLTWKSTNFKTILEWEPKPVNQVYTVQISTKSGDWKSKCFYTTDTECDLTDEIVKDVKQTYLARVFSYPAGNVESTGSAGEPLYENSPEFTPYLEANLGQPTIQSFEQVGTKVNVTVEDERTLVRRNNTFLSLRDVFGKDLIYTLYYWKSSSSGKKTAKTNTNEFLIDVDKGENYCFSVQAVIPSRTVNRKSTDSPVECMGQEKGEFREIFYIIGAVVFVVIILVIILAISLHKCRKAGVGQSWKENSPLNVS",more than 50%,–,–
"Arg-135: human tissue factor alanine mutant at Arg-135 (protein, UniProt P13726 33-295, looked up, variant R135A) Tissue factor: SGTTNTVAAYNLTWKSTNFKTILEWEPKPVNQVYTVQISTKSGDWKSKCFYTTDTECDLTDEIVKDVKQTYLARVFSYPAGNVESTGSAGEPLYENSPEFTPYLETNLGQPTIQSFEQVGTKVNVTVEDERTLVARNNTFLSLRDVFGKDLIYTLYYWKSSSSGKKTAKTNTNEFLIDVDKGENYCFSVQAVIPSRTVNRKSTDSPVECMGQEKGEFREIFYIIGAVVFVVIILVIILAISLHKCRKAGVGQSWKENSPLNVS",30-50%,7.4 fold,–
"R44: mhuTF with arginine substituted in place of D44 (protein, UniProt P13726 33-251, looked up, variant D44R, extracellular domain, mhuTF with arginine substituted in place of D44) extracellular domain: SGTTNTVAAYNLTWKSTNFKTILEWEPKPVNQVYTVQISTKSGRWKSKCFYTTDTECDLTDEIVKDVKQTYLARVFSYPAGNVESTGSAGEPLYENSPEFTPYLETNLGQPTIQSFEQVGTKVNVTVEDERTLVRRNNTFLSLRDVFGKDLIYTLYYWKSSSSGKKTAKTNTNEFLIDVDKGENYCFSVQAVIPSRTVNRKSTDSPVECMGQEKGEFRE",–,–,"loss of function (specific functional activity, Vmax) compared to wild-type (Factor X): 75%; reaction rate (Vmax) (Factor X; Factor X cleavage): ~0.5 per second"
